Test results taken from publication PMC10397247.
Each block holds one binder with its values, some of them ahead of it.

Experiments:
[1] = target: T1, 4H2585-bA; assay: two-hybrid library CCNG1;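 also: natural log of median RNA to DNA barcode read ratio; higher means stronger binding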
T1 chain: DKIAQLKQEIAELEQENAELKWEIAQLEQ

[2] = target: T2, 4H264-bA; assay: two-hybrid library CCNG1;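 also: natural log of median RNA to DNA barcode read ratio; higher means stronger binding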
T2 chain: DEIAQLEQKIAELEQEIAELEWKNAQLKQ

[3] = target: T3, 4H2760-bA; assay: two-hybrid library CCNG1;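 also: natural log of median RNA to DNA barcode read ratio; higher means stronger binding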
T3 chain: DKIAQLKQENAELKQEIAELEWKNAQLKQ

[4] = target: T4, 4H2859-bA; assay: two-hybrid library CCNG1;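 also: natural log of median RNA to DNA barcode read ratio; higher means stronger binding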
T4 chain: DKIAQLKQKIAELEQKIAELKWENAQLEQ

[5] = target: T5, 4H2931-bA; assay: two-hybrid library CCNG1;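 also: natural log of median RNA to DNA barcode read ratio; higher means stronger binding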
T5 chain: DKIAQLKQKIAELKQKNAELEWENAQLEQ

[6] = target: T6, 4H3041-bA; assay: two-hybrid library CCNG1;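 also: natural log of median RNA to DNA barcode read ratio; higher means stronger binding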
T6 chain: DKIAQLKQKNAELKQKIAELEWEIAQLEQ

[7] = target: T7, 4H3297-bA; assay: two-hybrid library CCNG1
T7 chain: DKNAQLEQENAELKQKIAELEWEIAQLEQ

[8] = target: T8, 4H3364-bA; assay: two-hybrid library CCNG1
T8 chain: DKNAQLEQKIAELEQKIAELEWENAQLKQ

[9] = target: T9, 4H3381-bA; assay: two-hybrid library CCNG1
T9 chain: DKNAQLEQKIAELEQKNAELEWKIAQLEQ

[10] = target: T10, 4H346-bH; assay: two-hybrid library CCNG1
T10 chain: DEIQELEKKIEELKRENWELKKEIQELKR

[11] = target: T11, 4H349-bA; assay: two-hybrid library CCNG1
T11 chain: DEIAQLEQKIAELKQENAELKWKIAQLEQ

[12] = target: T12, 4H56-bA; assay: two-hybrid library CCNG1
T12 chain: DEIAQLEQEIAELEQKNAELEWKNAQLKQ

[13] = target: T13, 4H730-bA; assay: two-hybrid library CCNG1
T13 chain: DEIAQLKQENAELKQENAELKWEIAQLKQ

[14] = target: T14, 4H796-bA; assay: two-hybrid library CCNG1
T14 chain: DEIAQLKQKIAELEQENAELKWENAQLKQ

[15] = target: T15, 4H932-bA; assay: two-hybrid library CCNG1
T15 chain: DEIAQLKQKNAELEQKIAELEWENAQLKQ

[16] = target: T16, 4H949-bA; assay: two-hybrid library CCNG1
T16 chain: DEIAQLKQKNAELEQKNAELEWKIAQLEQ

[17] = target: T17, 4H2898-AA; assay: two-hybrid library CCmax
T17 chain: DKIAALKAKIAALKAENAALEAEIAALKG

[18] = target: T18, 4H3020-AA; assay: two-hybrid library CCmax; conditions: mean of both orientations
T18 chain: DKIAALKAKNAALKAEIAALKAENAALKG

[19] = target: T19, 4H3365-AA; assay: two-hybrid library CCmax; conditions: mean of both orientations
T19 chain: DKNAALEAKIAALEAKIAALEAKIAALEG

[20] = target: T20, 4H355-AA; assay: two-hybrid library CCmax; conditions: mean of both orientations
T20 chain: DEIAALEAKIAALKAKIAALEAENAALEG

[21] = target: T21, 4H3651-AA; assay: two-hybrid library CCmax; conditions: mean of both orientations
T21 chain: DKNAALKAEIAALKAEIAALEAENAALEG

[22] = target: T22, 4H3705-AA; assay: two-hybrid library CCmax; conditions: mean of both orientations
T22 chain: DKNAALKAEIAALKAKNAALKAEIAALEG

[23] = target: T23, 4H3782-AA; assay: two-hybrid library CCmax; conditions: mean of both orientations
T23 chain: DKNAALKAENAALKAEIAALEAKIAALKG

[24] = target: T24, 4H465-AA; assay: two-hybrid library CCmax; conditions: mean of both orientations
T24 chain: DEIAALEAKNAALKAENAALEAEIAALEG

[25] = target: T25, 4H486-AA; assay: two-hybrid library CCmax; conditions: mean of both orientations
T25 chain: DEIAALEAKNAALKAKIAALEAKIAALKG

[26] = target: T26, 4H535-AA; assay: two-hybrid library CCmax; conditions: mean of both orientations
T26 chain: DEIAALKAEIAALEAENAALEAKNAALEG

[27] = target: T27, 4H58-AA; assay: two-hybrid library CCmax; conditions: mean of both orientations
T27 chain: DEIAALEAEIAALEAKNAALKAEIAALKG

[28] = target: T28, 4H895-AA; assay: two-hybrid library CCmax; conditions: mean of both orientations
T28 chain: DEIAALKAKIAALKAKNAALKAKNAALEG

[29] = target: T29, 4H_APH; assay: two-hybrid library CCmax; conditions: mean of both orientations
T29 chain: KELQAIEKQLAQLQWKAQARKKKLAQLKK

[30] = target: T30, 4H_BCR; assay: two-hybrid library CCmax; conditions: mean of both orientations
T30 chain: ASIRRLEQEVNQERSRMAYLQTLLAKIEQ

[31] = target: 4H_GCN4; assay: two-hybrid library CCmax; conditions: mean of both orientations
Sequence of 4H_GCN4 (chain, as listed by the source): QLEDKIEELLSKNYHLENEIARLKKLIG

[32] = target: GCN2_T; assay: two-hybrid library CCmax

interaction score [1]: 0.266
interaction score [2]: -1.54
interaction score [3]: 0.582
interaction score [4]: -0.28
interaction score [5]: -0.357
interaction score [6]: 0.083
interaction score [7]: -1.21
interaction score [8]: -0.878
interaction score [9]: -0.791
interaction score [10]: 1.98
interaction score [11]: 1.13
interaction score [12]: -0.397
interaction score [13]: -1.31
interaction score [14]: -1.49
interaction score [15]: -0.825
interaction score [16]: -1.08
B1: 4H2585-bA (peptide)
chain: DKIAQLKQEIAELEQENAELKWEIAQLEQ

interaction score [17]: 0.588
interaction score [18]: -0.301
interaction score [19]: -1.78
interaction score [20]: 0.0321
interaction score [21]: -0.71
interaction score [22]: 1.04
interaction score [23]: -1.39
interaction score [24]: -1.49
interaction score [25]: 1.49
interaction score [26]: 0.142
interaction score [27]: 2.06
interaction score [28]: -0.62
interaction score [29]: -1.54
interaction score [30]: 0.271
interaction score [31]: -0.672
interaction score [32]: -0.0478
B2: 4H2898-AA (peptide)
chain: DKIAALKAKIAALKAENAALEAEIAALKG
